Test: soluble on expression in E. coli; label from the status in PepcDB or PDB records

Sequence | soluble on expression in E. coli
MRLDVEQTSKLDRVRADYNVHYWSQGFYGIDDQGEMYVSPRSDNAHQIQLSKIVKQLEERQLNVPVLVRFPQILHQRVHSICDAFNQAIEEYQYPNKYLLVYPIKVNQQREVVDEILASQAQLETKQLGLEAGSKPELLAVLAMAQHASSVIVCNGYKDREYIRLALIGEKLGHKVFIVLEKMSELDLVLREAKSLGVTPRLGIRIRLASQGAGKWQASGGEKSKFGLSASQVLNVISRLKKENQLDTLQLVHFHLGSQMANIRDVRNGVNESARFYCELRTLGANITYFDVGGGLAIDYDGTRSQSSNSMNYGLVEYARNIVNTVGDVCKDYKQPMPVIISESGRSLTAHHAVLISNVIGTETYKPETVTEPEEDFPLLLNNMWRSWLNLHNGTDARALIEIYNDTQSDLAEVHSQFATGVLTLEHRAWAEQTSLRIYYELNRLMSTKNRFHRPILDELSERLADKFFVNFSLFQSLPDSWGIDQVFPVLPLSGLQNAADRRAVMLDITCDSDGAIDAYVDGQGIESTLPVPAWNEDEPYLMGFFLVGAYQEILGDMHNLFGDTHSVVVNVGDQGEINIDFINEGDTVEDMMRYVHIDVDQIRKNYHSLVSQRVDQEEQQQILAELEQGLSGYTYLEDFLEHHHHHH | soluble
MRLEFSIYRYNPDVDDAPRMQDYTLEADEGRDMMLLDALIQLKEKDPSLSFRRSCREGVCGSDGLNMNGKNGLACITPISALNQPGKKIVIRPLPGLPVIRDLVVDMGQFYAQYEKIKPYLLNNGQNPPAREHLQMPEQREKLDGLYECILCACCSTSCPSFWWNPDKFIGPAGLLAAYRFLIDSRDTETDSRLDGLSDAFSVFRCHSIMNCVSVCPKGLNPTRAIGHIKSMLLQRNA | soluble
MRLLPLVAAATAAFLVVACSSPTPPRGVTVVNNFDAKRYLGTWYEIARFDHRFERGLEKVTATYSLRDDGGLNVINKGYNPDRGMWQQSEGKAYFTGAPTRAALKVSFFGPFYGGYNVIALDREYRHALVCGPDRDYLWILSRTPTISDEVKQEMLAVATREGFDVSKFIWVQQPGS | soluble
MRLLVAFAVIYFISISPVCAENTASTINIPTPAIESPLASKSLLLDISLIGQEKLVTVGQHGHILLSNDGKKWQQANVPVQVTLTNVFFLNEQLGWAVGHDATILHSQDGGLNWQVQQYLPLLEKPLFDIYFKNPQQGIAVGAYGQVFRTNDGGSTWQNEFHQEILLADDVEYLNELKAEDEAAYLDEITFILPHFNRLVQDGGSLFLLGETGLLAKSDDFGLTWQQFDNFYQGSFFSLARTKTGNVLVAGLRGHVFRSLNHGSQWDEVPTNTTALLNDIVFANDERIFILGNNGMLLISTDDGESFSKIPQQDGKTLIAGVWFKGQLIAVSDVGIKVVDLSQELEHHHHHH | not soluble
MRLLVIIILVAFFLCTTAELMEKRSSMGGSAFGGIDRIPLSYLRKYYRQKTMKRDDNELLDFSPQNSQLGYRSISFWPLY | not soluble
MRLLVQNVHKRFGKLEALKGVSLELGAGEILGLLGPNGAGKTTLIKVVLGLLLPDGGEVVLEEGGARRRPQGHEFGVLLEGSRNLYVNLSLLVNALYFGGIRGLPPKEVRPRFEAWLERFGLKDRLHAPLASLSRGMQQKAALALALALKPRFLLLDEPTLGLDPVSRREFEGILLELKKEGWGILLTSHDLEVVERVSDRVAFLHRGEVRRQGPTRVLLREWAGEGYRVRLAEPKAEALLQALGPGWSAEGPEVLFFLGPWEALREALGAFPVEVLEVSRGTPSLEALFLHLFGEARPSPSA | soluble
MRLMKSYKNLKEEVWDTNRCSGCGACVAVCPVNNLYFREESPVKFECDECSCIIVPADIVEHPISAEFCKTVVYDVPCGACYDACPRIKKSAIPKPKGLGNILKAVRAKASIEIKNAQNGGVVTAILANAFDEGLIDGAIVMMDDKWTLEPESYLALSKEDVLKSAGSKYLWKGPILKALKTAVMEKKLKKLAVVGTPCVINAIYQILSSDNDLLKPFREAIRLKIALFCFETYDYSKMIKKLNEDGIEPWEVKKMDIESGKLKITLINGNTVEYKLKDVESAMRNGCKVCGDFTGLTSDISVGNVGTEKGYSTVLIRNKWGEGFFKRAVYNGYITYDENVDLEAVEKLVELKKKRVKKDLEHHHHHH | soluble
MRLNHKQGTAGEDAALAFLQSQGCTLLARNWHCAYGEIDLIVKNGGMILFVEVKYRKNQRFGGAAYSISPSKLLKLQRSVEYYLQQNRLTNVPCRLDAVLIEGNRPPEWIKNITG | soluble
MRLRHKPYAMDRINEYSHIVIGNPEERAGSWKEVFGNEQPIHIEVGTGRGRFMYDMAKANPHINYIGIEKFTSVVVDALDKLIEEELPNLKLINKDAEDLTVFFAKGEIDRVYLNFSDPWPKKRHTKRRLTYKTFLRNYEEVLVEGGEIHFKTDNQGLFEYSLMSMAEYGMLLTYLSLDLHNSDFEGNIMTEYEEKFSSKGHRIYRVEAKYRTEPMQ | not soluble
MRLSDYNTPLSGMLAAQMGLQTTKQNLSNIHTPGYVRQMVNYESAGGSKGYAPEQRIGYGVQTLGVDRITDEVKTKQYNDQMSQFSYYAYMNSTLSRVESMVGTTGKNSLSSLMDGFFNAFREVAKNPEQSNYYDTLIAETGKFTSQVSRLAKNLDTVEAQTTEDIEAHVNEFNRLAASLAEANKKIGQAGTQVPNQLLDERDRIMTEMSKYADIEVSYEATNPNIASVRMNGVLTVNGQDTYPLQLQKDKKPMSVQISGTDIPLSGGTILSAIDTKAKITNYKDNLNEFVNSLKKQVNNTMKKELFVGEDAKKLELNPDFIKDISKMKISAETANNLAAITDKGYKDGLTYKQALDQFLVGVASDKSSVNAYQNIHKDLLEGIQQEKMSIEGVNMEEEMVNLMAFQKYFVANSKAITTMNEVFDSLFSIIR | not soluble
MRLTDQKRESIVQAAIAEFGDRGFEITSMDRIAARAEVSKRTVYNHFPSKEELFAEMLQRLWNCAPPQSEVVYRPLVSLREQLLELLWGKMRNLTDSSFLDLARVVVGATIHSPERAQVWLARINEREETFSAWIRAAQKDGRLKPVDPGFAATQMHALLKSFAFWPQVTFNAALLTPQEQSNVVESALNMFLGWYEIPG | soluble
MRLVIHGKNIDITDGIRSYLNQKIERATSHFQNVINEVDVHLSVARNRSTAPKQTAEVTVFVNGSVIRAEESSENLYASIDLVADKIARKLRKLKEKRQDKSRAKDTNSVVEPEVVTDLVGDRTPQLPEQVVRMKYFAMPPMTIQEALEHLEMVDHDFYVFRNRDTGEINVVYERNHGGYGVIQPRPTSNNHHHNTADAAAKATAKAGPLEHHHHHH | soluble
MRMAAMHSGGKTIQLNAGHYQAKIVTVGAGLAELTHHGRHVVIPHKPEEIPMAHLGKVLIPWPNRVTNGCYSYNGKVFQLAVNDPVSQTAIHGLLAWRDWQINYQSATEASLTIFLPPSYGYPFALISEVIYRLDAASGLHVLIRTQNIGDESAPYGAGAHPYLTCNLQSIDSCVLTLPASEELPAGRDFSASCLLGETRLDHAVKTATTPAEWEVRLTSPTQNMSTFLRSTQPWLQIYTGEKLSRKGLAVEPMSCPPDAFNSGIALIHLAPKAIHQLHFSIGCD | not soluble
MRMIFVNLPVKNIEVSKSFFTALGFSFNPEYSDDRTLCMIVEENIFVMLLQEDRFRDFINGDIADAKQSTEVLTCLSAGSREEIDEMIATALASGGSSWKPVQDHGFMYAGSFQDPDGHVWELVHMTGQG | soluble
MRMKPYSELTREELLELKKDLSAQYHAFQGKDLKLDMSRGKPSVEQLDLSMGMMDVLNSDCDLTCEDGTDCRNYGVLDGIREAKELLGDMIEVPADNIIIYGNSSLNVMYDTISRSMTHGVMGNTPWCKLDKVKFLCPVPGYDRHFAITEYFGIEMVNVPMTEEGPDMDIVEELVSKDESIKGIWCVPKYSNPTGNSYSDQTVRRFARLKPAAADFRIYWDNAYSVHHLYDDDQDNLIEILAECKRAGNPDLAYKFSSTSKISFPGSGIAAVATSHNNLEDIKKQLRMQTIGHDKVNQLRHVRYFKNIHGMVEHMRKHAEILRPKFEAVEAILERELGGLGIGSWTSPKGGYFISFDSMDGCAKDIVAKCKKAGVVMTGAGATYPYGKDPHDSNIRIAPSYPPLQDLITATELFALCVKIVTVNKLLGATK | not soluble
MRMTINRYNFQALWNRMCMILTSKGGELKFGEIIPDTKRSEMKIGKTLYIVNSRYNGKENIIDKFKRLITRKLESQSKGN | not soluble
MRNFKKSDKLNNVSYDVRGPVLEEAERMQEEGIRILKLNTGNPAPFGFDAPNEIVRDMIVNVRDSEGYSDSKGIFSARKAIEQYCQLKKFPNVTINDIYTGNGVSELITMCMQGLLNNGDEVLVPMPDYPLWTASVSLAGGTPVHYICDEQAEWYPDIDDIKSKITSNTKAIVIINPNNPTGALYPKELLLEIVEVARQNDLIIYSDEIYDRLVMDGLVHVPIATLAPDLFVVTLNGLSKSHRVAGFRCGWMVLSGDKSRVKGYIEGLNMLASMRLCSNVLSQQIIQTALGGYQSVDGLLLPGGRIYEQREFIYNAINDIPGLSAVKPKAAFYIFPKIDTAKFDIYDDEKFVLDFLHKHHILLVHGGGFNWQQPDHFRIVYLPKMEDLKTTADKMREFLSTYKQK | not soluble
MRNILKATTLENKFPLFTVENGCIVSKDADITVAFRVELPELFTVTAAEYEAIHSAWNKAVKVLPDYSIVHKQDWFIKENYAPDIQKDDLSFLSRSFERHFNERPFLNHTCYLFLTKTTKEHSRMQSNFSTLCRGFLVPKEIRDRETVTKFLEAVGQFESIMNDSGFITLTRLSSDEITGTRETAGIVEKYFSLSQTDTTTLKDISLGADEMKIGDNILCLHTLSDAEDMPGKVGTDTRYEKLSTDRSDCRLSFASPVGVLLSCNHIYNQYIFIDDHTENLKQFEKMARNMHSLSKYSRANQINKSWIEEYLNEAHSQGLISVRCHCNIMAWSDDRDELKHIKNDVGSQLALMECKPRHNTTDTPTLFWAGIPGNQADFPAEESFYTFIEQALCLFTEETNYKSSLSPFGIKMVDRVTGKPLHIDISDLPMKRGIITNRNKFILGPSGSGKSFFTNHMVRQYYEQNAHVLLVDTGNSYLGLCEMINRKTHGEDGIYFTYTTENPIAFNPFYVEDGVFDIEKKESIKTLILTLWKRDDEAPTRAEEVALSNAVSSYIGLITKDCSVTPCFNTFYEYVRNDYRAHLQEKNVREKDFDIDNFLNVLEPYYKGGEYDYLLNSDKELDLLHKRFIVFELDNIKDHKILFPITTIIIMEVFINKMRKLKGIRKLILIEEAWKAIASANMADYIKYLYKTVRKYFGEAIVVTQEVEDIISSPIVKESIINNSDCKILLDQRKYLNKFDSIQNLLGLTDKERSQVLSINLANHPNRKYKEVWIGLGGTQSAVYATEVSLDEYFTYTTEETEKMELFALSEKLGGNLELAIKRLAESKRNPEK | not soluble
MRNTLKAATLESKFPLLAVEADCIISKDADITAVFEVDLPELFTVTAAEYEAIHAAWAKAIKVLPNYTVVHKQDWFIREDYRSQTDKENLSFLSRSYEMHFNERPFLNHKCYLYLTKTTKERMRMQSSFSSLCRGFIIPKEVDKDTTAHFLDTVGQFARIVNDTGLVHLRRLVGDEITGTENKAGLVEKYFCLSMENTTALEDIELGDDGLRVGDKHVSVHTLSELDALPSKVGTDCRYERLSTDKSDCKLSFASPVGLLLSCNHLYNQYIFLDDSGENLQRFEKNARNMQSLSKYSRSNQINKEWIDLYLNDAHSFGLTSVRAHCNIIAWTDNPMEVKNMRNDVGSQIAMMECKPRHNTVDAATLYWAAIPGNGADFPAEESFYTFIEQALCFWVEETNYRSSVSPFGLKMSDRISGKPLHVDISDLPMKRGVTTNRNKFVLGGSGSGKSFFMNHLARQYYEQGTHVVLIDTGNSYQGLCSLIHQKSGGKDGIYFTYTDENPIAFNPFFTDDKVFDIEKRESIKTLILTLWKKDNEPATRSEEVALSNAVSLYIRRIKEDESIVPSFNTFYEFVKTDYRRILEEKEVREKDFDLAGFLNVLEPYYRGGEYDFLLNSDKQLDLLGKRFIVFEIDQIKDHPILFPVTTIIIMELFINKMRRLKGVRKMIIIEEAWL | not soluble
